Results reported in paper PMC2695398.

Molecular target: Soluble HLA-DR15 (DRA, DRB1*1501) (human)
Assay: fluorescence polarisation

fold acceleration of peptide binding by DM at pH 4.7: 15 fold
fold acceleration of peptide binding by DM at pH 5.6: 8 fold
fold acceleration of peptide binding by J10-1 at pH 4.7: 15.6 fold
fold acceleration of peptide binding by J10-1 at pH 5.6: 28 fold
fold acceleration of peptide binding by J10-1 at pH 7.1: 12.6 fold
fold acceleration of peptide exchange by 10 uM J10-1: 15.9 fold
fold acceleration of peptide exchange by 30 uM J10-1: 66.4 fold
fold faster rate of binding with DR15/CLIP than with DR15/pMBP as input complex: > 10 fold
half-life of the complex (t1/2) with 100 uM J10: 4.48 h
half-life of the complex (t1/2) with 100 uM J10-1: 1.93 h
half-life of the complex (t1/2), no small molecule: 35 h
Substance: Alexa488 labeled derivative of the human myelin basic protein (MBP) 85-99 peptide
